The values below come from patent publication US20160039934A1 (AFFIRMED, published 2016).

Residue numbers refer to the chain shown, from its start.

The target of one test is EGFRvIII (UniProt P00533 25-1210). Briefly: cell-based or functional assay.
The target of another test is T1, cynomolgus CD3 (cynomolgus, UniProt Q95LI5 22-198).
T1 construct: whole, on cells; CD3 is a multi-chain complex; also called CD3 on cynomolgus CD3+ HSC-F cells; cynomolgus CD3-expressing cell line (HSC-F)
The test can be described thus: flow cytometry on cynomolgus CD3+ HSC-F cells, anti-His mAb and FITC goat anti-mouse IgG, non-linear regression of MFI. The source says: (§1) Cell-surface bound tandem diabody was detected by anti-His mAb followed by FITC-conjugated goat anti-mouse IgG. To calculate KD, mean fluorescence intensities determined by flow cytometry were modeled as sigmoidal dose-response by non-linear regression.
(§2) FIGS. 3A and 3B present binding of titrated tandem diabodies TandAb D, containing var_y, and TandAb E (SEQ ID NO:12), containing var_z, to a CD3⁺ human T cell line (Jurkat) and a CD3⁺ cynomolgus cell line (HSC-F), as determined by flow cytometric analysis.

Test [1] deals with T2, human CD3 (human, UniProt P07766 23-207).
T2 construct: whole, on cells; CD3 is a multi-chain complex; also called CD3 on human CD3+ Jurkat cells; CD3+ human T cell line (Jurkat)
T2 sequence (P07766 23-207): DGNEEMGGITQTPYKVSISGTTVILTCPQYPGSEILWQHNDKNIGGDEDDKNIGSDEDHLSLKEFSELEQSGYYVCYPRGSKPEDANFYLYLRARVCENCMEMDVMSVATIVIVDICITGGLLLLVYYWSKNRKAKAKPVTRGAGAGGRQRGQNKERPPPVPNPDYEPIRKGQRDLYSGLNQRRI
The test can be described thus: flow cytometry on Jurkat cells; reference TandAb E.
Source text: as §1, §2
(In general: In flow cytometry, cells or beads pass a laser one at a time.)

Test [2] deals with T2, human CD3. The test can be described thus: flow cytometry on human CD3+ Jurkat cells, anti-His mAb and FITC goat anti-mouse IgG, non-linear regression of MFI.
Source text: as §1, §2

The target in test [3] is T2, human CD3. Briefly: flow cytometry on Jurkat cells, non-linear regression (rounded restatement of the FIG. 3 value).
Source text: as §1, §2

T1 sequence (Q95LI5 22-198): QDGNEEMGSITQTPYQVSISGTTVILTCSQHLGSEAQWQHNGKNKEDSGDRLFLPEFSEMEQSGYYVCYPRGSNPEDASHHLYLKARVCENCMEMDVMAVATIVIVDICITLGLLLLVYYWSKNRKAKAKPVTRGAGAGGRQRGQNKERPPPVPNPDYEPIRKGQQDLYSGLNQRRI

B1: TandAb G (SEQ ID NO:14) (bispecific antibody)
chain: DIQMTQSPSSLSASVGDRVTITCRSSTGAVTTSNYANWVQQKPGKAPKGLIGGTNKRAPGVPSRFSGSLIGDKATLTISSLQPEDFATYYCALWYSNLWVFGQGTKVEIKGGSGGSEVQLVQSGAEVKKPGESLKISCKGSGYSFTSYWIGWVRQMPGKGLEWMGIIYPGDSDTRYSPSFQGQVTISADKSISTAYLQWSSLKASDTAMYYCARLGSSWTNDAFDIWGQGTMVTVSSGGSGGSSYELTQPPSVSVSPGQTARITCSGDALPKQYAYWYQQKPGQAPVLVIYKDSERPSGIPERFSGSSSGTTVTLTISGVQAEDEADYYCQSADSSGTPLIVFGTGTKLTVLGGSGGSEVQLVESGGGLVQPGGSLRLSCAASGFTFSTYAMNWVRQAPGKGLEWVGRIRSKYNNYATYYADSVKDRFTISRDDSKNSLYLQMNSLKTEDTAVYYCARHGNFGNSYVSWFAYWGQGTLVTVSSAAAGSHHHHHH
Take B1: the “EC50, 4 h calcein release cytotoxicity assay” value with EGFRvIII is 0.129 nM.

B2: TandAb D (var_y) (SEQ ID NO:11) (bispecific antibody)
chain: B1 chain with G49A, W469Y
notes: Homodimeric tandem diabody; Detected by anti-His mAb
Usually Kd stands for the equilibrium constant for the complex coming apart. On to B2, for which the Kd was found to be 3.4 nM in the test with cynomolgus CD3, 1.82 nM in the test with human CD3 [2] and 1.8 nM with human CD3 [3]. In addition, the “fold higher affinity than TandAb E” value with human CD3 [1] was over 10 fold. In the test with EGFRvIII, the “EC50, 4 h calcein release cytotoxicity assay” value is 0.122 nM.

B3: TandAb E (var_z) (SEQ ID NO:12) (bispecific antibody)
chain: B1 chain with W469H
notes: as for B2
Turning to B3, the Kd with cynomolgus CD3 came out at 24.3 nM; with human CD3 [2] it was 27.7 nM; with human CD3 [3], 27.7 nM.
